Values quoted from earlier work as cited in paper PMC3418248 (2012).

Molecular target: FtsZ C-terminal 17 amino acids (Bacillus subtilis) (UniProt P17865)
Conditions: cited from earlier work

Sequence of EzrA (O34894 whole entry): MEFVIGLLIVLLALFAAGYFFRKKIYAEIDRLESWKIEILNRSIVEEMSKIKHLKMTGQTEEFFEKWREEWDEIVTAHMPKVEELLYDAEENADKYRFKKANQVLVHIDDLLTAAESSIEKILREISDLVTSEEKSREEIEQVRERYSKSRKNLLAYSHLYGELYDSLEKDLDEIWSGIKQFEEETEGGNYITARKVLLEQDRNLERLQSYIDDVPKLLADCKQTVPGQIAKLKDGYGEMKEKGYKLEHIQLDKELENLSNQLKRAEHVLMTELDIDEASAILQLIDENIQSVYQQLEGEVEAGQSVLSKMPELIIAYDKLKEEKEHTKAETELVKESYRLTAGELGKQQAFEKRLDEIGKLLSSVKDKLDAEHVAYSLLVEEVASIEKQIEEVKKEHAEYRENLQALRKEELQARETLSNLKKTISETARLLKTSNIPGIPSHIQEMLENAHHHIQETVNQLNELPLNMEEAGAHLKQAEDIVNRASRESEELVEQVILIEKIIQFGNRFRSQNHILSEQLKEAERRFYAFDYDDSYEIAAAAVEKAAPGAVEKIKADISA

Question: With EzrA (from UniProt O34894) as the substance, how does the Kd read?
Answer: Its Kd is 102 µM.
